For this test, the target named is T1, extracellular portion of CD98 (212-630 of CD98hc).
T1 chain: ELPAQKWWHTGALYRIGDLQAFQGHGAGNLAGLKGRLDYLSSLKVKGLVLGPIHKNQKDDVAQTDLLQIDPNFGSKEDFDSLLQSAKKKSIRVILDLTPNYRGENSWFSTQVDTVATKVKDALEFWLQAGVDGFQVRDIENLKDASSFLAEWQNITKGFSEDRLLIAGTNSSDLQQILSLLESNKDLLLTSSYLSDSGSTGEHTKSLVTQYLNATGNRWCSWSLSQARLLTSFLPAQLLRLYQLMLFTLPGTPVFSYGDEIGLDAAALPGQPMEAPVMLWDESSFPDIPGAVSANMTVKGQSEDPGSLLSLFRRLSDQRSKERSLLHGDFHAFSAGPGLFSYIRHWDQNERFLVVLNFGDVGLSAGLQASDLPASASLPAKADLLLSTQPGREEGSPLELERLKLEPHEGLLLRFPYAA
As to the kind of experiment: SPR. Particulars: chain shown with the change;; parent: est. 24; read off a plot.

B1: domain 1 of CD147, P35613-2 K63A (protein)
chain: AAGTVFTTVEDLGSKILLTCSLNDSATEVTGHRWLKGGVVLAEDALPGQKTEFKVDSDDQWGEYSCVFLPEPMGTANIQLHGPPRVKAVKSSEHINEGETAMLVCKSESVPPVTDWAWYKITDSEDKALMNGSESRFFVSSSQGRSELHIENLNMEADPGQYRCNGTSSKGSDQAIITLRVRSH
Take B1: the response stood at 3.5 RU.

Values taken from paper PMC8632965.
